The source of these data is publication PMC10872757.

The test deals with MurAA-His6 (wild-type), UDP-N-acetylglucosamine 1-carboxyvinyl transferase of Enterococcus faecalis (Enterococcus faecalis). Description: thermal shift assay.
MurAA-His6 (wild-type), UDP-N-acetylglucosamine 1-carboxyvinyl transferase of Enterococcus faecalis (Enterococcus faecalis), sequence (Q831A8 whole entry): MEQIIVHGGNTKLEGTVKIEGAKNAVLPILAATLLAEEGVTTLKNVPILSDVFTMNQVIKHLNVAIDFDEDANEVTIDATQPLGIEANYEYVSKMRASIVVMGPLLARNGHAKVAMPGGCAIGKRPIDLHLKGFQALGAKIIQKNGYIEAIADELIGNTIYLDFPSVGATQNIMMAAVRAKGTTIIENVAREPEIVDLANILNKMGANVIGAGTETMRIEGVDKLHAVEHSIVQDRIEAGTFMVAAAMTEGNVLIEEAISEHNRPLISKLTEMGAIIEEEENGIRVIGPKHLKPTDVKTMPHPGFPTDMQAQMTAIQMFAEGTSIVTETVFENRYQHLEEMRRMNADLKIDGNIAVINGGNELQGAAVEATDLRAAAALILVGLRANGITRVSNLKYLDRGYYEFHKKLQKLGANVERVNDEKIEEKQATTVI

B1: IreB (unphosphorylated), substrate of the PASTA kinase IreK of Enterococcus faecalis (natural protein)
chain: MGFTDETVRFDFDDNRKKAISETLETVYRALEEKGYNPINQIVGYLLSGDPAYIPRYQDARNLIRRHERDEIMEELTKYYLANHGIDIK
Regarding B1, the additional shift of the MurAA Tm with IreB amounted to 16.5 °C.
